Measured values from the nanobody polyreactivity screen of Harvey et al. (2022).

assay: yeast display, Sf9 membrane polyspecificity reagent, FACS + sequencing; frameworks hold sequencing errors
Outline: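 Nanobodies from a synthetic yeast display library (Saccharomyces cerevisiae BJ5465), induced 36–48 hours with galactose, were stained 1 hour at 4 °C with 10% biotinylated, detergent-solubilized Sf9 membrane reagent, enriched on streptavidin microbeads, then FACS-sorted. Anti-HA (expression) and streptavidin (reagent binding) fluorescence set low and high (top ~1%) gates. Polyreactivity labels come from the gate of origin. Genes were colony-PCR amplified, MiSeq 2 × 250 sequenced and filtered by CDR length.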

Sequence	polyreactivity (PSR sort gate)
QVQLVESGGGLVQAGGSLRLSCAASGRTFSVYAMGWYRQAPGKERELVAGITSGGSTNYADSVKGRFTISRDNAKNTVYLQMNSLKPEDTAVYYCAAEDDSSTPEFDYWGQGTQVTVSS	low polyreactivity
QVQLVESGGGLVQAGGSLRLSCAASGITFGLYAMGWYRQAPGKERELVAAITWRGGSTYYADSVKGRFTISRDNAKNTVYLQMNSLKPEDTAVYYCAADFSGYSDDYWGQGTQVTVSS	high polyreactivity
QVQLVESGGGLVQAGGSLRLSCAASGRIFTNNAMGWYRQAPGKERELVAAITRGGTTNYADSVKGRFTISRDNAKNTVYLHMNSLKPEDTAVYFCARAGAHPWWSRSTMYYWGQGTQVTVSS	low polyreactivity
QVQLVESGGGLVQAGGSLRLTCAASGRTFWTNAMGWYRQAPGKVRELVAAIRNSGGRTYYADSVKGRFTISRDNAKNTVYLQMNSLKPEDTAVYYCNADFWYSYGYDYWGQGTQVTVSS	low polyreactivity
QVQLVESGGGLVQAGGSLRLSCAASGSTFYRYTMGWYRQAPGKERELVAAISRSGGRTYYADSVKGRFTISRDKAKNTVSVQMNSLKPEDTAVYYCAAARRYGRYFGYPMEYWGQGTQVTVTS	high polyreactivity
QVQLVESGGGLVQAGGSLRLSCAASGSTFRGYAMGWYRQAPGKERELVATITSGGSTKYADSVKGRFTISRDNAKNTVYLQMNSLKPEDTAVYYCNAVPRSWSPYSHWFDYWGQGTQVTVSS	low polyreactivity
QVQLVESGGGLVQAGGSLRLSCAPSGCTLGAYAMGWYRQAPGKVRELVADISSRGASTYYEDSVKGRFTISRDHAKNTVYIQMNSLKPEDTAVYDCARAVYIWYGYGYFPEYEYWGQGTQVTVSS	low polyreactivity
QVQLVESGGGLVQAGGSLRLSCAASGSIISSNAMGWYRQAPGKEREMVAAITWSGGSTYYADSVKGRFTNSRDNAKNTVYLQMNSLKPEDTAVYYCAADQWRYDGSFTGYGYWGQGTQVTVSS	low polyreactivity
QVQIVESGGGLVQAGGSLRLSCAASGRIFFVNTKGWYRQAPGKERELVATISWSGGSTYYADSVKGRFTISRDNAKNTVYLQMNSLKPEDTAVYYCNRSLTGYDELGYPVPYTYDYWGQGTQVTVSS	low polyreactivity
QVQLVESGGGLVQAGGILRLSCAASGSTFSYYAMGWYRQAPGKERELVARISKDTGSTYYADSVKGRFTISRDNAKNTVYLQMNSLKPEDTAVYYCAAELDYFPGYDYWGQGTQVTVSS	low polyreactivity
QVQLVESGGGLVQAGGSLRLSCAASGSIFDDYAMGWYRKAPGKERELVAAITSGGSTYYADSVKGRFTISRDNAKNTVYLQMNSLKPEDTAVYYRATRYHWSSSFAPVGAYGYWGQGTQVTVSS	low polyreactivity
QVQLVESGGGLVQAGGSLSLSCDASGFTFRYYFMGWYRQAPGKERELVAAISYTGRTTYYADSVKGRFTISRDNAKNTVYLQMNSLKPEDTAVYYCASGAIGYNGKAYGMDYWGQGTEVTVSS	high polyreactivity
QVQLVESGGGLVQAGGSLRLSCAASGFIFFTYAMGWYRQAPGKERELVADISSRGGSTYYADSVKGRFTISRDNAKNTVYLQMNSLKPEDTAVYYCARTRFWLRYRLFDYWGQGTQVTVSS	low polyreactivity
QVQLVESGGGLVQAGGSLRLSCAASGITFLDNVMGWYRQAPGKERELVADINSIGTSTSYADSVKGRFTISRDNAKNTVYLQMNSLKPEDTAVYYCAADTGLEDYDYWGQGTQVTVSS	low polyreactivity
QVQLVESGGGLVQPGGSLRLSCAASGSIFRVYAMGWYRQAPGKERELVAAISRGGNTNYADSVKGRFTISRDNAKNTVYLQKNSLKPEDTAVYYCNARYYSWDWWIGYDYWGQGTLVTVSS	high polyreactivity
QVQLVESGGGLVQAGGSLRLSCAASGFSFGIYAMGWYRQAPGKERELVADITASGGSTYYADSVKGRFTISRDNAKNTVYLQMNSLKPEDTAVYYCAADGWWHNFYPGTGLDYWGQGTQVTVSS	low polyreactivity
QVQLVESGGGLVQAGGSLRLSCAASGRTFDYYVMGWYRQAPGKERELVAAISRRGGSTYYADSVKGRFTISRDNAKNTVYLQMNSLKPEDTAVYYCAAQYYYAREDYWGQGTQVTVSS	high polyreactivity
QVQLVESGGGLVQAGGSLRLSCAASGSIFRYYAMGWYRPATGKERELVADITSSGGSTYYADSVKGRFTISRDNPKNTVYLQMNSLKREDTAVYYCASLYWFYVYPFTEYDYWGQGTQVTVSS	low polyreactivity
QVQLVESGGGLVQAGGSLRLSCAASGSISVSYMGWYRQAPGKERELVAAINWRGGSTYYADSVKGRFTISRDNAKNTVYLQMNSLKPEDTAVYYCAADYTVSYPYYEYYYWGQGTQVNVSS	high polyreactivity
QVHLVESWGGLVQAGGSLRLSCSASGITFDEYTIGWYRQAPGKERELVAAIDSDGSTTYADSVKVRFTISRDNAKNTVYLQMNILKPEDTEVYYCNAEHGDFCWHYLLYDYDYWGQGTQVTVSS	low polyreactivity

Sequence	polyreactivity (PSR sort gate)
QVQLVESGGGLVQAGGSLRLSCAASGRTFGYYAMGWYRQAPGIERELVATITWGDGTTYYADSVKGRFTFSRDNAKNTVYLQMNILKPEDTAVYYCAVDRSSWWWDDYRYDYWGQGTQVTVSS	low polyreactivity
QVQLVESGGGLVQAGGSIRLSCAASGSIFRIYVMGWYRQAPGQERELVAAINSGGRTKYADSVKARFTISRDNAKNTVYLQMNSLKPEDTAVYYCAAAFQYRKGVSSLYASWGQGTQVTLSS	high polyreactivity
QVQLVESAGGLGQAGGSLRLSSAASGITTRTYAMGWYRQARGNERELVAAISDSGDRTYYADSVKGRFTISRDNAKNTVYLQMNSLKPEETAVYYCAVHAPGPRCEYWGQGTQVTVSS	low polyreactivity
QVQLVESGGGLVQAGGSLRLSCAASGYTFGYYAMGWYRQAPGKERELVAAISSGGSTYYADSVKGRFTISRDNAKNTVYLQMNSLKPEDTAVYYCAVVRYLGDRGMNYWGQGTQVTVSS	low polyreactivity
QVQLVESGGGLVQAGGSLRLSCAASGRIFRVNALGWYRQATRKERELVAGITQGDGSTYYADSVKGRFTISRDNAKNTVYLQMNSLKPEDTAVYYCAAEGFYTTGSPYSGGLDYWGQGTQVTVSS	low polyreactivity
QVQLVESGGGLVQAGGSLRLSCAASGRIFYWNAMGWYRQAPGKEREFVAAISWSGGSTYADSVKGRFTISRDNAKNTVYLQMNSLKPEDTAVYYCATRVSRSFRAYDYWGQGTQVTVSS	high polyreactivity
QVQLVESGGGLVQAGGSLRLSCAASGRTFVRYAMGWYRQAPGKERELVAAISGDGASTYYADSVKGRFTISRDNAKNTVYLQMNSLKPEDTAVYYCNARSIRRYYYPDYDYWGQGTQVTVSS	high polyreactivity
QVQLVESGGGLVQAGGSLRLSCAASGITFYHYAMGWYRQAPGKERELVATISSRGGTTYYADSVKGRFTISRDNAKNTVYLQMNSLKPEDTAVYYCADRTWIIYPVSKYDSWGQGTQVTVSS	high polyreactivity
QVQLVESGGGLVQAGGSLRLSCAASGRTFDRNTMGWYRQAPGKQRELVAAISSSGGSTYYADSVKGRFTISRDNAKNTVYLQMNSLKPEDTAVYYCAARQSPNRWMGYWGQGTQVTVSS	high polyreactivity
QVQLVESGGGLVQAGGSLRLSCAASGFTFTYNAMGWYRQAPGKERELVAAITANGGGTNYADSVKGRFTISRDNEKNTVYLQMNSLKPEDTAVYYCAATIVVAVFESLGFYWYTEDNYWGQGTQVTVSS	low polyreactivity
QVQLVESGGGLVQAGGSLRLSCAASGRIFSRYTMGWYRQAPGKERELVAGITRGGGSTYYADSVKGRFTISRDNAKNTVYLQMNSLKPEDTAVYYCAATFAYHDGDYWGQGTQVTVSS	low polyreactivity
QVQLVESGGGLVQAGGSLRLSCAASGRIFGTNALGWYRQAPGKERELVATITRGGGNTYYADSVKGRFTISRDNAKNTVYLQMNSLKPEDTAVYYCAAKFHRFAWYSHYDYWGQGTQVTVSS	low polyreactivity
QVQLVESGGGLVQAGGSLRLSCAASGSTLVGYVMGWYRQAPGKERELVATISRSGGSTYYADSVKGRFTISRDNAKNTVYLQMNSLKPEDTAVYYCATDLLNNVDYDYWGQGTQVTVSS	low polyreactivity
QVQLVESGGGLVQAGGSLRLSCAASGGIFWRYAMGWYRQAPGKERELVAAISSRGGSTYYADSVKGRFTISRDNAKNTVYLPMNSLKPEYTAVYYCAAAFLSRVQGYDSWGQGTQVTVSS	high polyreactivity
QVQLVESGGGLVQAGGSLRLSCDASGFIFNYYVMGWYRQAPGKERELVAAISRSGGSTYYADSVKGRFTISRDNAKNTVYLQKNSLKTEDTAVYYCAAEYGYGKRAYDSWGQGTQVTVSS	high polyreactivity
QVQLVESGGGLVQAGGSLRLSCAASGFTFTAYAMGWYRQAPGKERELVAAISRSGGSTSYADSVKGRFTISRDNAKNTVYLQMNSLKPEDTAVYYCAAGRVGWGQGTQVTVSS	high polyreactivity
QVQLVESGGGLLQAGGSLRLSCAASGRIFGWYAMGWYRQAPGKERELVAAISRGGTRTNYADSVKGRFTISRDNSKNTVYLQMNSLKPEDTAVYYCAAGGSWCQNGYWGQGTQVTVSS	high polyreactivity
QVQLVESGGGLVQAGGSLRLSCAASGRIFGHYAIGWYRKAPGKERELVAAISTSGGSTYYADSVKGRFTISRDNAKNTVYLQMNSLKPEDTAVYYCAASVVYYPYDYWGQGTQVTVSS	high polyreactivity
QVQLVESGGGLVQAGGSLRLSCAASGSIFPINAMGWSRQAPGKERELVAAITVSDGRTYYADSVKGRFTISRDNAKNTVYLQMNSLKPEDTAVYYCAAVTPFRVLYDYWGQGTQVTVSS	low polyreactivity
QVQLVESVVGLVQAGGSLRLSCAASGRIFIIYAMGWYIQAPGKEREFVAAITSSGGSTYYGDSVKGRFTISRDNAKNTVYLQMNSLKPEDSAVYYCAARVTKLRTSSLRGYWGQGTQVTVSS	high polyreactivity
